According to paper PMC6033619 (ACS chemical neuroscience, 2018):
*: point of attachment. Cbz = O=C(OCc1ccccc1)*; Boc = CC(C)(C)OC(=O)*

Assays:
CLuc-FGF14 (human) = CLuc-FGF14 (human) (human, UniProt Q92915 1-247); assay: split reporter
[1] = target: T1, FGF14^V160A (aa 64-252) (human) (UniProt Q92915); assay: SPR
T1 sequence: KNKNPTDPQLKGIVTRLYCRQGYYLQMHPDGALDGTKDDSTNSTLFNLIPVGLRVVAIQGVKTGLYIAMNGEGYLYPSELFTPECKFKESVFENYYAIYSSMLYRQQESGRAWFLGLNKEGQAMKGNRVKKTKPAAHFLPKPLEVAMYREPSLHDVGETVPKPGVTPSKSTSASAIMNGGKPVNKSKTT

[2] = target: T2, FGF14^WT (aa 64-252) (human) (UniProt Q92915); assay: SPR
T2 sequence: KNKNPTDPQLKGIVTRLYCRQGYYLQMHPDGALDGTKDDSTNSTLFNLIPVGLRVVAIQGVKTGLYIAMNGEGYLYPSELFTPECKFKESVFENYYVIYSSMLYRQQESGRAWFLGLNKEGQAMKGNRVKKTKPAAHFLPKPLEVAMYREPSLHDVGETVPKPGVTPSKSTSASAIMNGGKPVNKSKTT

IC50 (CLuc-FGF14 (human)): 63 µM
Kd [1]: 182 µM
Kd [2]: 89.6 µM
B1: ZL181 (Cbz-FLPK(Boc)-CONH2) (peptide)
peptide: Cbz-FLPK(Boc)-NH2
SMILES: CC(C)C[C@H](NC(=O)[C@H](Cc1ccccc1)NC(=O)OCc1ccccc1)C(=O)N1CCC[C@H]1C(=O)N[C@@H](CCCCNC(=O)OC(C)(C)C)C(N)=O
